Measurements reported in patent US20260248972A1, “DUAL RECEPTOR TARGETING RADIOLIGANDS AND USES THEREOF RELATED APPLICATIONS” (priority 2022, published 2026).
*1 amine or outer side, *2 acyl side, *3 side chain or, on linkers, in order; H or OH if unused. Where a SMILES comes first, the peptide text is derived from it. Bridges are numbered along the chain shown (N, C = ends). Side-chain parts run from the residue outwards. [ ]: non-standard residue; d: D form. The star is where a group is joined. X1 = CC(C)(C)C(=O)CN1C(=O)[C@H](N*)CN(C2CCCCC2)c2ccccc21; DOTA = O=C(O)CN1CCN(CC(=O)O)CCN(CC(=O)*)CCN(CC(=O)O)CC1; 3Abz = Nc1cccc(C(=O)O)c1; CO = O=C([*:1])[*:2]

Assay: in vivo
Conditions: BALB/c nude, mouse, in vivo, iv, total radioactivity
Experimental: To a 0.5 M NaOAc buffer (20-50 μL, pH=4.5) was added 4 μL of exemplary or comparator compound in DMSO stock solution (2000 μM) and 2 mCi ^177Lu (ITM Isotope Technologies Munich), the resulting mixture was heated to 95° C. for 15 min. The resulting product was analyzed by radio-TLC and radio-HPLC (column: Shim-pack GIST 5 μm 4.6*150 mm; buffer A: 0.2% formic acid H2O; buffer B: 0.1% formic acid acetonitrile; flow rate: 1 mL/min; gradient: 0-5 min: 10% B to 95% B; then 5-8 min: 95% B). The labelled products were used immediately or diluted by a PBS buffer containing freshly added 3 mg/mL ascorbate.
All animal care and experimental procedure were performed by following the animal protocols approved by the ethics committee of China Institute of Radiation Protection. The BALB/c nude mice (Charles River, Beijing) were utilized for these studies. Mice were below 5 per cage in sterile, microisolator cages under temperature- and humidity-controlled conditions with a 12 h light/12 h dark schedule and fed irradiated rodent chow and reverse osmosis (RO) sterile water ad libitum. In preparation for tumor cell inoculations, mice were anesthetized with isoflurane (RWD Life Science Inc.) at an induction rate of 4% and maintained at a rate of 2.5% with 0.4 L oxygen delivered via precision vaporizer and a non-rebreathing apparatus. These mice received subcutaneous rear flank injections of approximately 4×10^6 AR42J cells ([…] pancreatic cancer cell line) suspended in 200 μL of phosphate-buffered saline (PBS) and Matrigel (Corning) (1/1). Xenografted tumors were allowed to grow for ~2-4 weeks post-inoculation and ranged in mass from 0.05 to 0.50 g (average tumor size, 0.20 g). […] The mice were euthanized, and the tissues and organs were excised from the animals at 4, 24 and 72 h post-injection. The tissues and organs were weighed, counted in a PerkinElmer 2480 WIZARD2 γ counter, and the percent injected dose (% ID) and % ID/g of each organ or tissue were calculated.

C[C@@H](O)[C@H](NC(=O)[C@@H]1CSSC[C@H](NC(=O)[C@@H](Cc2ccccc2)NC(=O)COCCOCCNC(=O)[C@H](CCCCNC(=O)c2cccc(NC(=O)N[C@@H]3CN(C4CCCCC4)c4ccccc4N(CC(=O)C(C)(C)C)C3=O)c2)NC(=O)CN2CCN(CC(=O)O)CCN(CC(=O)O)CCN(CC(=O)O)CC2)C(=O)N[C@@H](Cc2ccc(O)cc2)C(=O)N[C@H](Cc2c[nH]c3ccccc23)C(=O)N[C@@H](CCCCN)C(=O)N[C@@H]([C@@H](C)O)C(=O)N1)C(=O)O [Compound 177Lu-I-37, metal not drawn]
tissue uptake at 4 h (% ID/g Adrenal gland): 2.01 %ID/g
tissue uptake at 24 h (% ID/g Adrenal gland): 1.43 %ID/g
tissue uptake at 72 h (% ID/g Adrenal gland): 0.22 %ID/g
tissue uptake at 4 h (% ID/g Blood): 0.94 %ID/g
tissue uptake at 24 h (% ID/g Blood): 0.18 %ID/g
tissue uptake at 72 h (% ID/g Blood): 0.05 %ID/g
tissue uptake at 4 h (% ID/g Fat): 3.28 %ID/g
tissue uptake at 24 h (% ID/g Fat): 0.4 %ID/g
tissue uptake at 72 h (% ID/g Fat): 0.32 %ID/g
tissue uptake at 4 h (% ID/g Femur): 0.83 %ID/g
tissue uptake at 24 h (% ID/g Femur): 0.26 %ID/g
tissue uptake at 72 h (% ID/g Femur): 0.18 %ID/g
tissue uptake at 4 h (% ID/g Heart): 1.12 %ID/g
tissue uptake at 24 h (% ID/g Heart): 0.4 %ID/g
tissue uptake at 72 h (% ID/g Heart): 0.15 %ID/g
tissue uptake at 4 h (% ID/g Intestine): 2.17 %ID/g
tissue uptake at 24 h (% ID/g Intestine): 0.67 %ID/g
tissue uptake at 72 h (% ID/g Intestine): 0.5 %ID/g
tissue uptake at 4 h (% ID/g Kidney): 22.5 %ID/g
tissue uptake at 24 h (% ID/g Kidney): 7.79 %ID/g
tissue uptake at 72 h (% ID/g Kidney): 3.16 %ID/g
tissue uptake at 4 h (% ID/g Liver): 11 %ID/g
tissue uptake at 24 h (% ID/g Liver): 2.4 %ID/g
tissue uptake at 72 h (% ID/g Liver): 2.03 %ID/g
tissue uptake at 4 h (% ID/g Lung): 4.42 %ID/g
tissue uptake at 24 h (% ID/g Lung): 1.38 %ID/g
tissue uptake at 72 h (% ID/g Lung): 1.41 %ID/g
tissue uptake at 4 h (% ID/g Muscle): 0.38 %ID/g
tissue uptake at 24 h (% ID/g Muscle): 0.1 %ID/g
tissue uptake at 72 h (% ID/g Muscle): 0.03 %ID/g
tissue uptake at 4 h (% ID/g Pancreas): 4.5 %ID/g
tissue uptake at 24 h (% ID/g Pancreas): 0.68 %ID/g
tissue uptake at 72 h (% ID/g Pancreas): 0.19 %ID/g
tissue uptake at 4 h (% ID/g Spleen): 0.8 %ID/g
tissue uptake at 24 h (% ID/g Spleen): 0.2 %ID/g
tissue uptake at 72 h (% ID/g Spleen): 0.13 %ID/g
tissue uptake at 4 h (% ID/g Stomach): 6.95 %ID/g
tissue uptake at 24 h (% ID/g Stomach): 2.58 %ID/g
tissue uptake at 72 h (% ID/g Stomach): 2.13 %ID/g
tissue uptake at 4 h (% ID/g Tumor): 48.7 %ID/g
tissue uptake at 24 h (% ID/g Tumor): 23.1 %ID/g
tissue uptake at 72 h (% ID/g Tumor): 21.4 %ID/g

C[C@@H](O)[C@H](NC(=O)[C@@H]1CSSC[C@H](NC(=O)[C@@H](Cc2ccccc2)NC(=O)COCCOCCNC(=O)COCCOCCNC(=O)[C@H](CCCCNC(=O)c2cccc(NC(=O)N[C@@H]3CN(C4CCCCC4)c4ccccc4N(CC(=O)C(C)(C)C)C3=O)c2)NC(=O)CN2CCN(CC(=O)O)CCN(CC(=O)O)CCN(CC(=O)O)CC2)C(=O)N[C@@H](Cc2ccc(O)cc2)C(=O)N[C@H](Cc2c[nH]c3ccccc23)C(=O)N[C@@H](CCCCN)C(=O)N[C@@H]([C@@H](C)O)C(=O)N1)C(=O)O [Compound 177Lu-I-39, metal not drawn]
tissue uptake at 4 h (% ID/g Adrenal gland): 1.33 %ID/g
tissue uptake at 24 h (% ID/g Adrenal gland): 1.06 %ID/g
tissue uptake at 72 h (% ID/g Adrenal gland): 0.3 %ID/g
tissue uptake at 4 h (% ID/g Blood): 0.91 %ID/g
tissue uptake at 24 h (% ID/g Blood): 0.33 %ID/g
tissue uptake at 72 h (% ID/g Blood): 0.06 %ID/g
tissue uptake at 4 h (% ID/g Fat): 3.38 %ID/g
tissue uptake at 24 h (% ID/g Fat): 1.07 %ID/g
tissue uptake at 72 h (% ID/g Fat): 0.27 %ID/g
tissue uptake at 4 h (% ID/g Femur): 0.9 %ID/g
tissue uptake at 24 h (% ID/g Femur): 0.42 %ID/g
tissue uptake at 72 h (% ID/g Femur): 0.1 %ID/g
tissue uptake at 4 h (% ID/g Heart): 0.84 %ID/g
tissue uptake at 24 h (% ID/g Heart): 0.38 %ID/g
tissue uptake at 72 h (% ID/g Heart): 0.12 %ID/g
tissue uptake at 4 h (% ID/g Intestine): 1.8 %ID/g
tissue uptake at 24 h (% ID/g Intestine): 0.76 %ID/g
tissue uptake at 72 h (% ID/g Intestine): 0.24 %ID/g
tissue uptake at 4 h (% ID/g Kidney): 25.7 %ID/g
tissue uptake at 24 h (% ID/g Kidney): 12 %ID/g
tissue uptake at 72 h (% ID/g Kidney): 3.2 %ID/g
tissue uptake at 4 h (% ID/g Liver): 6.35 %ID/g
tissue uptake at 24 h (% ID/g Liver): 2.78 %ID/g
tissue uptake at 72 h (% ID/g Liver): 1.24 %ID/g
tissue uptake at 4 h (% ID/g Lung): 3.81 %ID/g
tissue uptake at 24 h (% ID/g Lung): 1.85 %ID/g
tissue uptake at 72 h (% ID/g Lung): 0.87 %ID/g
tissue uptake at 4 h (% ID/g Muscle): 0.3 %ID/g
tissue uptake at 24 h (% ID/g Muscle): 0.13 %ID/g
tissue uptake at 72 h (% ID/g Muscle): 0.02 %ID/g
tissue uptake at 4 h (% ID/g Pancreas): 3.71 %ID/g
tissue uptake at 24 h (% ID/g Pancreas): 0.94 %ID/g
tissue uptake at 72 h (% ID/g Pancreas): 0.15 %ID/g
tissue uptake at 4 h (% ID/g Spleen): 0.76 %ID/g
tissue uptake at 24 h (% ID/g Spleen): 0.31 %ID/g
tissue uptake at 72 h (% ID/g Spleen): 0.07 %ID/g
tissue uptake at 4 h (% ID/g Stomach): 6.28 %ID/g
tissue uptake at 24 h (% ID/g Stomach): 4.63 %ID/g
tissue uptake at 72 h (% ID/g Stomach): 1.26 %ID/g
tissue uptake at 4 h (% ID/g Tumor): 41.8 %ID/g
tissue uptake at 24 h (% ID/g Tumor): 27.5 %ID/g
tissue uptake at 72 h (% ID/g Tumor): 9.48 %ID/g

C[C@@H](O)[C@H](NC(=O)[C@@H]1CSSC[C@H](NC(=O)[C@@H](Cc2ccccc2)NC(=O)CNC(=O)[C@H](CO)NC(=O)CNC(=O)[C@H](CCCCNC(=O)c2cccc(NC(=O)N[C@@H]3CN(C4CCCCC4)c4ccccc4N(CC(=O)C(C)(C)C)C3=O)c2)NC(=O)CN2CCN(CC(=O)O)CCN(CC(=O)O)CCN(CC(=O)O)CC2)C(=O)N[C@@H](Cc2ccc(O)cc2)C(=O)N[C@H](Cc2c[nH]c3ccccc23)C(=O)N[C@@H](CCCCN)C(=O)N[C@@H]([C@@H](C)O)C(=O)N1)C(=O)O [Compound 177Lu-I-54, metal not drawn] ({DOTA}-K([3Abz-CO-X1])GSG[dF]CY[dW]KTCT-OH; disulfide 6-11)
tissue uptake at 4 h (% ID/g Adrenal gland): 2.34 %ID/g
tissue uptake at 24 h (% ID/g Adrenal gland): 1.64 %ID/g
tissue uptake at 72 h (% ID/g Adrenal gland): 1.12 %ID/g
tissue uptake at 4 h (% ID/g Blood): 0.81 %ID/g
tissue uptake at 24 h (% ID/g Blood): 0.16 %ID/g
tissue uptake at 72 h (% ID/g Blood): 0.09 %ID/g
tissue uptake at 4 h (% ID/g Fat): 3.5 %ID/g
tissue uptake at 24 h (% ID/g Fat): 3.78 %ID/g
tissue uptake at 72 h (% ID/g Fat): 2.66 %ID/g
tissue uptake at 4 h (% ID/g Femur): 0.83 %ID/g
tissue uptake at 24 h (% ID/g Femur): 0.66 %ID/g
tissue uptake at 72 h (% ID/g Femur): 0.79 %ID/g
tissue uptake at 4 h (% ID/g Heart): 1.29 %ID/g
tissue uptake at 24 h (% ID/g Heart): 0.65 %ID/g
tissue uptake at 72 h (% ID/g Heart): 0.5 %ID/g
tissue uptake at 4 h (% ID/g Intestine): 2.07 %ID/g
tissue uptake at 24 h (% ID/g Intestine): 1.56 %ID/g
tissue uptake at 72 h (% ID/g Intestine): 1.14 %ID/g
tissue uptake at 4 h (% ID/g Kidney): 20.7 %ID/g
tissue uptake at 24 h (% ID/g Kidney): 10.5 %ID/g
tissue uptake at 72 h (% ID/g Kidney): 8.45 %ID/g
tissue uptake at 4 h (% ID/g Liver): 31.6 %ID/g
tissue uptake at 24 h (% ID/g Liver): 9.6 %ID/g
tissue uptake at 72 h (% ID/g Liver): 5.01 %ID/g
tissue uptake at 4 h (% ID/g Lung): 2.65 %ID/g
tissue uptake at 24 h (% ID/g Lung): 2.77 %ID/g
tissue uptake at 72 h (% ID/g Lung): 1.91 %ID/g
tissue uptake at 4 h (% ID/g Muscle): 0.3 %ID/g
tissue uptake at 24 h (% ID/g Muscle): 0.21 %ID/g
tissue uptake at 72 h (% ID/g Muscle): 0.16 %ID/g
tissue uptake at 4 h (% ID/g Pancreas): 3.91 %ID/g
tissue uptake at 24 h (% ID/g Pancreas): 2.65 %ID/g
tissue uptake at 72 h (% ID/g Pancreas): 2.42 %ID/g
tissue uptake at 4 h (% ID/g Spleen): 1.25 %ID/g
tissue uptake at 24 h (% ID/g Spleen): 0.71 %ID/g
tissue uptake at 72 h (% ID/g Spleen): 1.28 %ID/g
tissue uptake at 4 h (% ID/g Stomach): 4.81 %ID/g
tissue uptake at 24 h (% ID/g Stomach): 4.1 %ID/g
tissue uptake at 72 h (% ID/g Stomach): 4.2 %ID/g
tissue uptake at 4 h (% ID/g Tumor): 30 %ID/g
tissue uptake at 24 h (% ID/g Tumor): 25.7 %ID/g
tissue uptake at 72 h (% ID/g Tumor): 19.6 %ID/g
